B1: VH:VL chains; a variant is named by its letters at X, in order (parent)
chain 1: QVQLVQSGAEVKKPGASVKVSCKASGYTFTDYXMHWVRQAPGQGLEWMGXVNPNXXXTTYNQKFEGRVTMTTDTSTSTAYMELRSLRSDDTAVYYCARXNXLDXWGQGTTVTVSS
chain 2: DIQMTQSPSSLSASVGDRVTITCSVSSSVSSIYLHWYQQKPGKAPKLLIYSTSNLASGVPSRFSGSGSGTDFTLTISSLQPEDFATYYCQVYSGYPLTFGGGTKVEIK

Variants of: B1
Experiment: yeast display scFab, FACS + sequencing
Procedure, shortened: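 The non-specific binding call was based on sorted and sequenced yeast displaying a heavy-chain CDR mutant scFab library. Labelling used anti-Myc with biotinylated ovalbumin (260 μg/mL in PBSB, 3 h, room temperature) or soluble membrane proteins (130 μg/mL, 20 min on ice), and FACS collected the top 25% and bottom 10% of binders in two replicates. Positive meant present in ≥3 of 4 pooled positive samples and in no negatives, and negative meant the converse.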

Variant | non-specific binding call
YTGTSSGA | no binding
YTGTSDGV | no binding
DTTKSDGV | no binding
DTKRTAVA | binds
YTKETAAD | binds
YTTKSDGV | no binding
YTKTGDAV | no binding
DTREGDAV | no binding
YTKAASWV | no binding
YTRGAAGV | no binding
YTRGAAGY | no binding
VTTKSDAV | no binding
YTKRSSGA | binds
YTRGADWY | no binding
YTRGADWA | no binding
STGTGYVF | no binding
DTKAADVA | no binding
YTTGGSSA | no binding
ATTGSASF | no binding
DTKRTAGD | no binding
VTTRADVA | no binding
VTTRADVV | no binding

Variant | non-specific binding call
VTTRADVY | no binding
VTTRADVF | no binding
VTTKSYLV | no binding
DTTRADVD | no binding
DTTKGDVV | no binding
DTTKGDVA | no binding
DTKAADGV | no binding
DTKAADWY | no binding
DTKAADWV | no binding
YTRGNAWA | binds
FTRAGAAA | binds
VTTRDDSD | no binding
STRGADAV | no binding
STTGSASF | no binding
YTGTSSLD | no binding
FTTGGSAV chain 1 M48I | no binding
YTGTSDVY | no binding
YTGTSDVS | no binding
VTTADDWV | no binding
DTTGSASD | no binding
DTTGSASF | no binding
YTKRGDWD | binds

Variant | non-specific binding call
FTTRSALS | binds
DTKAASGV | no binding
DTKAASSA | no binding
DTKAASSS | no binding
DTKAAAVV | no binding
VTTRGAVA | no binding
VTKGGSSA | no binding
VTTKSDGY | no binding
VTTKSDGA | no binding
STTRGAVA | no binding
DTTKSSSS | no binding
YTTGGDGA | no binding
FTGTSAAF | binds
YTRGGSGA | binds
STGTSDLY | no binding
DTREGDVA | no binding
DTREGDVY | no binding
DTREGDVD | no binding
STTKSDGV | no binding
YTKTSSVD | binds
ATTKSDVA | no binding
VTRGDSGA | no binding

Variant | non-specific binding call
YTTRGAGA | no binding
YTTGGYLV | binds
VTTGGDGV | no binding
YTTGGAAV | no binding
VTKTGDVA | no binding
ATTKSAVA | no binding
VTKTGDAV | no binding
DTTKGDGS | no binding
YTKRSAVV | binds
YTGTSDLD | no binding
YTGTSDLV | no binding
YTGTSDLA | no binding
VTTKSSVA | no binding
DTGTSDLY | no binding
FTRRSSLF chain 1 V111I | binds
FTRTNFLS | binds
DTTGSDAV | no binding
YTGTSAVV | no binding
YTGTSAVS | no binding
YTGTSAVA | no binding
FTKASYVY | binds
YTTGGDVA | no binding

Variant | non-specific binding call
DTTGSALD | no binding
VTRGADGV | no binding
VTTKSDLA | no binding
YTRGAAVA | no binding
FTTRDDSD | no binding
DTGTGSWD | no binding
YTRGASGA | no binding
VTTKSSSA | no binding
YTRGADVA | no binding
YTRGADVV | no binding
DTKAASWA | no binding
DTKAASWV | no binding
VTKESAAV | no binding
STRKSYAA | binds
STKAASWV | no binding
STKRSFWA | binds
DTKAAAGD | no binding
YTTGSASF | no binding

— the emibetuzumab library of Makowski et al. (2022)
